The values below come from the supplement of paper PMC9170038.

The subject of this series is MS2 coat protein. Kind of series: apparent KD of MS2 coat protein; designed switch direction (-1 OFF switch, 1 ON switch): -1; higher = weaker reporter binding. The method in brief: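 Transcription of designed RNA switches on Illumina chips was done by stalled E. coli RNA polymerase. SNAP-549-labelled MS2 coat protein was then titrated in doubling steps from 0.7 or 1.5 nM to 3 µM, with steps of 0.8–1.5 h at the lowest and 10–20 min at the highest concentration. The per-design median over clusters of curve-fitted normalised fluorescence is reported as apparent KD.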

Setting [1] is: Eterna round: R95, input ligand: FMN 200 uM.
The mark [2] stands for this setting: Eterna round: R95, input ligand: microRNA oligo, concentration not stated.
The mark [3] stands for this setting: Eterna round: R95, input ligand: none.
[4] abbreviates: input ligand: microRNA oligo, concentration not stated.

For the sequence “GAUCCUUCUGUUAGGAUAUGCAACGGGCUUCCGCAGCAGAAGGAACAUGAGGAUCACCCAUGUCAAAUAAAAUC [JL-BMX4-4.36 ViennaUCT mod] (Eterna round: R97, puzzle: Brourd's mod of Exclusion 4)”, the “apparent KD of MS2 coat protein” value stood at 54.1 nM (input ligand: FMN 200 uM) and 18.7 nM (input ligand: none).
With “GAUGCUUCGGCAUCUACAAGCUUUUUGCUCGUCUUAUUAACAUGAGGAUCACCCAUGUUAAUGAGACCUCAUGUAUU [Sensor v3 - turn-off variant 2 - 7] (puzzle: Sensor v3, turn-off variant 2)”, the “apparent KD of MS2 coat protein” value turned out to be 13.5 nM under setting [1], 14.9 nM under setting [2] and 11.1 nM under setting [3].
“GAUUAACAUGAGGAUCACCCAUGUGAGGAUAUGGACUGGCUCACUUUUCGAUUCCCGUCUAGAAGGCACAUCUU [1986#10] (Eterna round: R97, puzzle: Exclusion 1)”: the “apparent KD of MS2 coat protein” value by setting is: (input ligand: FMN 200 uM) 85.9 nM; (input ligand: none) 41.1 nM.
On to “GAUUAACAUGAGGAUCACCCAUGUGAGGAUAUGGACUUGCCCACUUAACCAUUAGAGUCUAGAAGGCGCAUCUC [1986#28] (Eterna round: R97, puzzle: Exclusion 1)”, for which the “apparent KD of MS2 coat protein” value turned out to be 27.1 nM (input ligand: FMN 200 uM) and 22.7 nM (input ligand: none).
Consider “GAUUAUGCGAGCUUUAGGGACAUGAGGAUCACCCAUGUUCGUCUUAUUAGUCUAGAUACGCUGACAUACCUAAAUCU [JMF 96] (puzzle: Sensor v3, turn-off variant 1)”, for which the “apparent KD of MS2 coat protein” value runs as follows: under setting [1], 14.5 nM; under setting [2], 18.5 nM; under setting [3], 15.8 nM.
The matching figures for “GAUUAUGCGAGCUUUAGGGACAUGAGGAUCACCCAUGUUCGUCUUAUUGAUCUAGGUACGCUAACAUACCUAAAUCU [Mod of one of jandersonlee's solutions 3] (puzzle: Sensor v3, turn-off variant 1)”: 23 nM, 36.3 nM and 23 nM.
On the same counts, the results for “GAUUAUGCGAGCUUUAGGGACAUGAGGAUCACCCAUGUUCGUCUUAUUGAUCUAGGUACGCUGACAUACCUAAAUCU [Mod of one of jandersonlee's solutions 2] (puzzle: Sensor v3, turn-off variant 1)” are 22.4 nM, 36.1 nM and 24.4 nM.
On the same counts, the results for “GAUUAUGCGAGCUUUAGGGACAUGAGGAUCACCCAUGUUCGUCUUAUUGAUCUAGGUGCACUGACAUACCUAAAUCU [JMF 89] (puzzle: Sensor v3, turn-off variant 1)” are 28.5 nM, 37.9 nM and 29.8 nM.
“GAUUAUGCGAGCUUUAGGGACAUGAGGAUCACCCAUGUUCGUCUUAUUGGUCUAGAUGCACUGACAUACCUAAAUCU [JMF 79] (puzzle: Sensor v3, turn-off variant 1)”: the “apparent KD of MS2 coat protein” value stood at 15.9 nM under setting [1], 19.1 nM under setting [2] and 16.3 nM under setting [3].
Take “GAUUAUGCGAGCUUUAGGGACAUGAGGAUCACCCAUGUUCGUCUUAUUGGUCUAGGUACGCUAACAUACCUAAAUCU [JMF 4] (puzzle: Sensor v3, turn-off variant 1)”: the “apparent KD of MS2 coat protein” value is 22.6 nM under setting [1], 37.4 nM under setting [2] and 23.4 nM under setting [3].
The matching figures for “GAUUAUGCGAGCUUUAGGGACAUGAGGAUCACCCAUGUUCGUCUUAUUGGUCUAGGUACGCUGACAUACCUAAAUCU [JMF 101] (puzzle: Sensor v3, turn-off variant 1)”: 20.9 nM, 32.2 nM and 23.7 nM.
“GAUUAUGCGAGCUUUAGGGACAUGAGGAUCACCCAUGUUCGUCUUAUUGGUCUGGGUACGCUAACAUACCUAAAUCU [JMF 5] (puzzle: Sensor v3, turn-off variant 1)”: the “apparent KD of MS2 coat protein” value under setting [1] came out at 34.3 nM, the “apparent KD of MS2 coat protein” value under setting [2] was found to be 46.7 nM and the “apparent KD of MS2 coat protein” value under setting [3] amounted to 37.2 nM.
The matching figures for “GAUUAUGCGAGCUUUAGGGACAUGAGGAUCACCCAUGUUCGUCUUGUUGAUCUAGGUACACUGACAUACCUAAAUCU [JMF 65] (puzzle: Sensor v3, turn-off variant 1)”: 22 nM, 26.9 nM and 18.3 nM.
In the case of “GAUUGACAUGAGGAUCACCCAUGUGAGGAUAUCGGCCGGACCUUGUUAGCUUCCACCGCGAGAAGGCACAUCGG [Exclusion 1 V30] (puzzle: Exclusion 1)”, the “apparent KD of MS2 coat protein” value under setting [2] came out at 17 nM.
Still for that read-out and setting: under “GAUUGACAUGAGGAUCACCCAUGUGAGGAUAUCGGCCGGAUCUUGUUAGCUUCCAUCGCGAGAAGGCACAUAGG [Exclusion 1 V33] (puzzle: Exclusion 1)” stands 55.2 nM.
As to “GAUUGACAUGAGGAUCACCCAUGUGAGGAUAUCGGCUGGACCGUGUUGGCCUGCCUCUCGAGAAGGCGCAUAGG [Exclusion 1 V53] (puzzle: Exclusion 1)”, the “apparent KD of MS2 coat protein” value by setting is: under setting [1], 49.9 nM; under setting [2], 35.6 nM; under setting [3], 40.5 nM.
Regarding “GAUUGACAUGAGGAUCACCCAUGUGAGGAUAUCGGCUGGACCGUGUUGGCUUCCGUCGCGAGAAGGCGCAUAGG [Exclusion 1 V42] (puzzle: Exclusion 1)”, the “apparent KD of MS2 coat protein” value under setting [1] is 61 nM, the “apparent KD of MS2 coat protein” value under setting [2] was found to be 43.5 nM and the “apparent KD of MS2 coat protein” value under setting [3] came to 46.4 nM.
Regarding “GAUUGAGAGCAGGAUAUCUUAGAAAUGUAUGAAAGAGAAGGGCUCACAUGAGGAUCACCCAUGUGGUCCUAGAU [JL Dibiri mod 17] (Eterna round: R96, puzzle: Exclusion 6)”, the “apparent KD of MS2 coat protein” value by setting is: (input ligand: FMN 200 uM) 162 nM; under setting [4], 17.9 nM; (input ligand: none) 25.4 nM.
For “GAUUGAGAGCAGGAUAUCUUAGAAAUGUAUGAAAGAGAAGGGCUCACAUGAGGAUCACCCAUGUGGUCCUAGAU [JL Dibiri mod 17] (puzzle: Exclusion 6)”, the “apparent KD of MS2 coat protein” value under setting [1] worked out at 244 nM, the “apparent KD of MS2 coat protein” value under setting [2] came to 22.8 nM and the “apparent KD of MS2 coat protein” value under setting [3] came out at 27.5 nM.
Turning to “GCAAGCUUUUUGGUUUUCAACAUGAGGAUCACCCAUGUUCGUCUUAUACCCGGGCCCGGGCGGUGCCCGGGCCCGGG [-40, -68 kcal, A 14%] (Eterna round: R97, puzzle: Sensor, turn-off variant 1)”, the “apparent KD of MS2 coat protein” value reads like this: (input ligand: FMN 200 uM) 18.2 nM; (input ligand: none) 21.7 nM.
Consider “GCACGGAAUGUAGGAUAUUAGUGCGAUUAGCACUGAGAAGGACAUGAGGAUCACCCAUGUUCCUCAAUAAUAAACCUUCCGUGC [Eli exng1 - 044] (Eterna round: R96, puzzle: Exclusion NG 1)”, for which the “apparent KD of MS2 coat protein” value runs as follows: (input ligand: FMN 200 uM) 13 nM; under setting [4], 10.2 nM; (input ligand: none) 13.3 nM.
On the same counts, the results for “GCACGGAGUGUAGGAUAUCUGUGCGAUUAGCUCAGAGAAGGACAUGAGGAUCACCCAUGUGUGUUCCAAUAAUAAAAUCCGUGC [Eli exng1 - 063] (Eterna round: R96, puzzle: Exclusion NG 1)” are 1500 nM, 270 nM and 329 nM.
In the case of “GCACGGAUUGUAGGAUAUCUGUGCGAUUAGCUCAGAGAAGGACACAUGAGGAUCACCCAUGUUACCUCAAUUAGCCUUCCGUGC [Eli exng1 - 030] (Eterna round: R96, puzzle: Exclusion NG 1)”, the “apparent KD of MS2 coat protein” value (input ligand: FMN 200 uM) is 21.7 nM, the “apparent KD of MS2 coat protein” value under setting [4] turned out to be 14.9 nM and the “apparent KD of MS2 coat protein” value (input ligand: none) stood at 20 nM.
On the same counts, the results for “GCACGGUUGGUAGGAUAUCCUUGCGAUUAGCAAGGAGAAGGACCACAUGAGGAUCACCCAUGUACCUCAAUUGUCCUUCCGUGC [Eli exng1 - 026] (Eterna round: R96, puzzle: Exclusion NG 1)” are 18.5 nM, 13.9 nM and 19.3 nM.
As for “GCAGAAUGAGUUAGGAUAUGAUGAUUAUUCGGAAAUCAGAAGGAACUUGAGGAUCACCCAAGUAAAGAUAGGGU [JR_BMEx4_Sub063] (Eterna round: R97, puzzle: Brourd's mod of Exclusion 4)”, the “apparent KD of MS2 coat protein” value (input ligand: FMN 200 uM) is 361 nM and the “apparent KD of MS2 coat protein” value (input ligand: none) came out at 221 nM.
On the same counts, the results for “GCAGAGCAAGGAUAUACAUGAGGAUCACCCAUGUAAUCUGAAAGGAUUGUAUGGCUCUGUAGAAGGUGCGAAAA [Ederxein] (Eterna round: R97, puzzle: Exclusion 3)” are 41.9 nM and 22.7 nM.
“GCAGCAAAUUCCAUUAAAACCACAUGAGGAUCACCCAUGUCUCAGGAUAUGGUCUGGAUUACAGGCCAGAAGGGAGAAAGCUGC [Eli exng3 - 055] (Eterna round: R96, puzzle: Exclusion NG 3)”: the “apparent KD of MS2 coat protein” value by setting is: (input ligand: FMN 200 uM) 10.1 nM; under setting [4], 11.9 nM; (input ligand: none) 16.3 nM.
The matching figures for “GCAGCAACUCUAAUCAAAACCACAUGAGGAUCACCCAUGUCUCAGGAUAUGGUCUGGAUUACAGGCCAGAAGGGAGAAAGCUGC [Eli exng3 - 050] (Eterna round: R96, puzzle: Exclusion NG 3)”: 13.3 nM, 10.6 nM and 19.4 nM.
The matching figures for “GCAGCAUAGUCCAAAUAGGACAUACAUGAGGAUCACCCAUGUCAGGAUAUGGUCUGGAUUACAGGCCAGAAGGGACGAAGCUGC [Eli exng3 - 005] (Eterna round: R96, puzzle: Exclusion NG 3)”: 18 nM, 16.4 nM and 22.6 nM.
